Measurements taken from paper doi:10.1101/2024.03.26.586665 (bioRxiv, 2024).

Assays:
[1] = molecular target: human CaMKIIα W403L hub (human) (UniProt Q9UQM7); assay: mass photometry
[2] = molecular target: the molecule itself; assay: mass photometry
[3] = molecular target: the molecule itself; assay: SAXS

Row | Molecule | stoichiometry N [1] | stoichiometry N [2] | stoichiometry N [3]
1 | human CaMKIIα W403L hub (from UniProt Q9UQM7 345-475) (domain or fragment) | 12 |  | 
2 | human CaMKIIα WT hub (calcium/calmodulin-dependent protein kinase II subtype alpha, hub domain) (domain or fragment, UniProt Q9UQM7 345-475, looked up) VRKQEIIKVTEQLIEAISNGDFESYTKMCDPGMTAFEPEALGNLVEGLDFHRFYFENLWSRNSKPVHTTILNPHIHLMGDESACIAYIRITQYLDAGGIPRTAQSEETRVWHRRDGKWQIVHFHRSGAPSV |  | 24 | 12
